Substitutions are numbered along the chain they refer to.
Target: T1, I-CreI variant RRN (R44, R68, N70, N75)
T1 chain: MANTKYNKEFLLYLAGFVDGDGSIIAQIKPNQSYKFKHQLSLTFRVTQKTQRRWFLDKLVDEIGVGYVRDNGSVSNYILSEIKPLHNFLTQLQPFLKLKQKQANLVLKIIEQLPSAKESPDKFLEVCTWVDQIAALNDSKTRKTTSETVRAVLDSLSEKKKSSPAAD

B1: I-CreI variant DRN (D44, R68, N70, N75) (protein)
chain: T1 chain with R45D
For B1, the “cleavage of chimeric DNA targets on co-expression” value was “no cleavage of chimeric targets could be detected by co-expression of the same weak mutants”.
